The results in this text go back to patent US20060115428A1 (MorphoSys, published 2006).

Assay [1] concerns the target recombinant fibronectin domain ED-B (His)6 (human) (UniProt P02751). In words: SPR (BIAcore), ED-B immobilised on chip.
For assay [2] the target is unchanged. Nature of the assay: SPR (BIAcore), ED-B immobilised on chip. This is another data set of the same source.
The target is the same in assay [3]. In words: SPR (BIAcore), ED-B immobilised on chip. This is another data set of the same source.
The target of assay [4] is T1, recombinant fibronectin domain ED-B (His)6 (human, UniProt P02751 1266-1356).
T1 construct: domain: ED-B; Produced by standard procedures; immobilised on ELISA plates or on the BIAcore chip; also called recombinant ED-B; human ED-B
In words: SPR (BIAcore), ED-B immobilised on chip, Fab in flow. As to the method: (§1) F1-Chips (Biacore, Sweden) were coated with about 200 RU of ED-B (30 μg/ml, 10 mmol of acetate buffer, pH 4.0) and reference flow cells with a corresponding amount of human serum albumin (20 μg/ml, 10 mmol of acetate buffer, pH 4.5) with use of standard EDC-NHS-amine-coupling chemistry. The antigen density was reduced to about 100 RU for the Fab characterization of the second maturation. The regeneration was carried out with 10 mmol of HCl. All kinetic measurements were carried out in PBS buffer (136 mmol of NaCl, 2.7 mmol of KCl, 10 mmol of Na₂HPO₄, 1.76 mmol of KH₂PO₄, pH 7.4) with a flow rate of 20 μl/minute with use of a Fab concentration range of 1.5-500 nmol. The injection period was 1 minute in each case. All sensograms were evaluated with use of BIA evaluation software 3.1.
The properties of twelve selected binding molecules was determined by BIAcore analysis (see Table 1). […] At least two independent measurements with Fab molecules from different batches were performed for protein expression and protein purification. The binding rate (Kₒₙ) and the dissociating-off rate (Koff) of the Fab molecule are indicated in separate columns.

For assay [5], the target named is T2, recombinant fibronectin domain 7-8-9 (without ED-B) (UniProt P02751-1 1173-1446, limits assumed).
T2 construct: domain: fibronectin domains 7-8-9 (without ED-B)
In words: specificity ELISA on immobilised recombinant domain 7-8-9.

Assay [6] concerns the target T3, recombinant fibronectin domain 6 (UniProt P02751 1086-1172, limits assumed).
T3 construct: domain: fibronectin domain 6; also called 6FN; 6-FN
Nature of the assay: specificity ELISA on immobilised recombinant fibronectin domain 6.

The target of assay [7] is T1, recombinant fibronectin domain ED-B …. In words: SPR (BIAcore), ED-B immobilised on chip, Fab in flow. As to the method:
as §1
This is another data set of the same source.

Assay [8] shares this target. In words: SPR (BIAcore); ratio to parent clone MOR02715. As to the method: as §1
For assay [9], the target named is T2, recombinant fibronectin domain 7-8-9 …. Nature of the assay: specificity ELISA on immobilised recombinant domain 7-8-9. This is another data set of the same source.
Assay [10] addresses T3, recombinant fibronectin domain 6. Nature of the assay: specificity ELISA on immobilised recombinant fibronectin domain 6. This is another data set of the same source.
Assay [11] addresses T1, recombinant fibronectin domain ED-B …. In words: SPR (BIAcore), ED-B immobilised on chip (about 100 RU), Fab in flow. As to the method:
as §1

Read-outs that look alike come from different tables or passages of the source.

As for “AP39, covalent dimer of the anti-ED-B scFv antibody L19”, the kon worked out at 675000 M⁻¹ s⁻¹ in assay [1] and 660000 M⁻¹ s⁻¹ in [3]. In addition, the koff in assay [2] is 0.0015 s⁻¹; in assay [3], 0.00149 s⁻¹. Moreover, the dissociation constant (Kd) in [3] is 2.4 nM.

B1: MOR02619 (Fab, V domains shown)
VH: QVQLQESGPGLVKPGETLSLTCTVSGGSISSYYWSWIRQAPGKGLEWIGIGHWGSTQYNPSLKGRVTISVDTSKNQFSLKLSSVTAEDTAVYYCARFFDVWGQGTLVTVSS
VL: DIVLTQPPSVSGAPGQRVTISCSGSSSNIGSNTVRWYQQLPGTAPKLLIYSNNKRPSGVPDRFSGSKSGTSASLAITGLQSEDEADYYCQSWDGASTGVFGGGTKLTVLG
notes: HuCAL GOLD Fab, VH4/L1
Turning to B1, in assay [4], the dissociation constant Kd amounted to 15.4 nM, the off-rate (koff) was found to be 0.012 s⁻¹ and the kon was determined as 780000 M⁻¹ s⁻¹. The binding result in assay [5] was “no binding”. In assay [6], the binding result is “no binding”. Further, in assay [7], the Kd turned out to be 15.4 nM, the koff came out at 0.012 s⁻¹ and the kon is 780000 M⁻¹ s⁻¹.

B2: MOR03062 (Fab, V domains shown)
VH: QVQLVESGGGLVQPGGSLRLSCAASGFTFSSYGMHWVRQAPGKGLEWVSVISSSGSYIYYADSVKGRFTISRDNSKNTLYLQMNSLRAEDTAVYYCARNKVGFDVWGQGTLVTVSS
VL: DIALTQPASVSGSPGQSITISCTGTSSDGGGYNTVSWYQQHPGKAPKLMIYYVHKRPSGVSNRFSGSKSGNTASLTISGLQAEDEADYYCQSWDLSVHQVVFGGGTKLTVLG
notes: Fab, L-CDR3 derivative of MOR02715
Turning to B2, in assay [8], the “x-Fold Improvement Relative to the Parent Clone, KD” value was 15.8 fold; the “x-Fold Improvement Relative to the Parent Clone, Koff” value came to 4.2 fold; the “x-Fold Improvement Relative to the Parent Clone, Kon” value amounted to 4 fold. In addition, in assay [7], the Kd stood at 3.4 nM, the koff came out at 0.011 s⁻¹ and the kon was 3.5e+06 M⁻¹ s⁻¹.

B3: MOR03255 (Fab, V domains shown)
VH: QVQLVESGGGLVQPGGSLRLSCAASGFTFSSYGMHWVRQAPGKGLEWVSVISNRSSYIYYADSVKGRFTISRDNSKNTLYLQMNSLRAEDTAVYYCARNKVGFDVWGQGTLVTVSS
VL: DIALTQPASVSGSPGQSITISCTGTSSDGGGYNTVSWYQQHPGKAPKLMIYYVHKRPSGVSNRFSGSKSGNTASLTISGLQAEDEADYYCQSWDLSVHQVVFGGGTKLTVLG
notes: Fab, H-CDR2 derivative of MOR03062
As for B3, in [9], the binding result is given as “no binding”. Moreover, the binding result in [10] was “no binding”. In assay [11], the equilibrium dissociation constant (Kd) turned out to be 0.03 nM, the off-rate (koff) worked out at 8.6e-05 s⁻¹ and the on-rate (kon) is 4.9e+06 M⁻¹ s⁻¹.

B4: MOR03064 (Fab, V domains shown)
VH: QVQLVESGGGLVQPGGSLRLSCAASGFTFSSYGMHWVRQAPGKGLEWVSVISSSGSYIYYADSVKGRFTISRDNSKNTLYLQMNSLRAEDTAVYYCARNKVGFDVWGQGTLVTVSS
VL: DIALTQPASVSGSPGQSITISCTGTSSDGGGYNTVSWYQQHPGKAPKLMIYYVHKRPSGVSNRFSGSKSGNTASLTISGLQAEDEADYYCQSWDLLAPSVVFGGGTKLTVLG
notes: as for B2
For B4, in [8], the “x-Fold Improvement Relative to the Parent Clone, KD” value was 5.3 fold; the “x-Fold Improvement Relative to the Parent Clone, Koff” value was 3.5 fold; the “x-Fold Improvement Relative to the Parent Clone, Kon” value was 1.7 fold. Also, in assay [7], the equilibrium dissociation constant (Kd) was found to be 10 nM, the off-rate constant (koff) is 0.014 s⁻¹ and the on-rate constant (kon) stood at 1.5e+06 M⁻¹ s⁻¹.

B5: MOR03252 (Fab, V domains shown)
VH: QVQLVESGGGLVQPGGSLRLSCAASGFTFSSYGMHWVRQAPGKGLEWVSVISNYSWHIYYADSVKGRFTISRDNSKNTLYLQMNSLRAEDTAVYYCARNKVGFDVWGQGTLVTVSS
VL: DIALTQPASVSGSPGQSITISCTGTSSDGGGYNTVSWYQQHPGKAPKLMIYYVHKRPSGVSNRFSGSKSGNTASLTISGLQAEDEADYYCQSWDLSVHQVVFGGGTKLTVLG
notes: as for B3
In the case of B5, in assay [9], the binding result is “no binding”. For the same molecule, in [10], the binding result is “no binding”. In [11], the Kd turned out to be 0.03 nM, the koff stood at 6.1e-05 s⁻¹ and the on-rate constant (kon) was 3.1e+06 M⁻¹ s⁻¹.

B6: MOR02715 (Fab, V domains shown)
VH: QVQLVESGGGLVQPGGSLRLSCAASGFTFSSYGMHWVRQAPGKGLEWVSVISSSGSYIYYADSVKGRFTISRDNSKNTLYLQMNSLRAEDTAVYYCARNKVGFDVWGQGTLVTVSS
VL: DIALTQPASVSGSPGQSITISCTGTSSDGGGYNTVSWYQQHPGKAPKLMIYYVHKRPSGVSNRFSGSKSGNTASLTISGLQAEDEADYYCQAWDNQGMKYVFGGGTKLTVLG
notes: HuCAL GOLD Fab, VH3/L2
B6: in assay [4], the Kd worked out at 53.7 nM, the off-rate constant (koff) was 0.047 s⁻¹ and the on-rate (kon) was determined as 890000 M⁻¹ s⁻¹. Further, the binding result in [5] is “no binding”. Also, in [6], the binding result is recorded as “no binding”. In addition, in assay [7], the Kd was 53.7 nM, the off-rate (koff) was 0.047 s⁻¹ and the on-rate constant (kon) was 990000 M⁻¹ s⁻¹.

B7: MOR03251 (Fab, V domains shown)
VH: QVQLVESGGGLVQPGGSLRLSCAASGFTFSSYGMHWVRQAPGKGLEWVSVISNMSYTIYYADSVKGRFTISRDNSKNTLYLQMNSLRAEDTAVYYCARNKVGFDVWGQGTLVTVSS
VL: DIALTQPASVSGSPGQSITISCTGTSSDGGGYNTVSWYQQHPGKAPKLMIYYVHKRPSGVSNRFSGSKSGNTASLTISGLQAEDEADYYCQSWDLSVHQVVFGGGTKLTVLG
notes: as for B3
On to B7, for which the binding result in [9] was “no binding”. In addition, the binding result in [10] is “no binding”. Further, in assay [11], the Kd stood at 0.07 nM, the dissociation rate constant (koff) is 0.0002 s⁻¹ and the kon was found to be 3.3e+06 M⁻¹ s⁻¹.

B8: MOR03253 (Fab, V domains shown)
VH: QVQLVESGGGLVQPGGSLRLSCAASGFTFSSYGMHWVRQAPGKGLEWVSVISNMGFEIYYADSVKGRFTISRDNSKNTLYLQMNSLRAEDTAVYYCARNKVGFDVWGQGTLVTVSS
VL: DIALTQPASVSGSPGQSITISCTGTSSDGGGYNTVSWYQQHPGKAPKLMIYYVHKRPSGVSNRFSGSKSGNTASLTISGLQAEDEADYYCQSWDLSVHQVVFGGGTKLTVLG
notes: Fab, H-CDR2 derivative
As to B8, the binding result in [9] is “no binding”. Also, the binding result in assay [10] is on record as “no binding”. In assay [11], the Kd was determined as 0.13 nM, the koff came out at 0.0002 s⁻¹ and the kon worked out at 1.6e+06 M⁻¹ s⁻¹.

B9: MOR03257 (Fab, V domains shown)
VH: QVQLVESGGGLVQPGGSLRLSCAASGFTFSSYGMHWVRQAPGKGLEWVSVISNRGNYIYYADSVKGRFTISRDNSKNTLYLQMNSLRAEDTAVYYCARNKVGFDVWGQGTLVTVSS
VL: DIALTQPASVSGSPGQSITISCTGTSSDGGGYNTVSWYQQHPGKAPKLMIYYVHKRPSGVSNRFSGSKSGNTASLTISGLQAEDEADYYCQSWDLSVHQVVFGGGTKLTVLG
notes: as for B3
In the case of B9, in assay [9], the binding result is reported as “no binding”. The binding result in assay [10] is “no binding”. For the same molecule, in [11], the Kd worked out at 0.08 nM, the dissociation rate constant (koff) came to 0.0003 s⁻¹ and the kon was 5.3e+06 M⁻¹ s⁻¹.

B10: MOR03245 (Fab, V domains shown)
VH: QVQLQESGPGLVKPGETLSLTCTVSGGSISSYYWSWIRQAPGKGLEWIGVIHKWGFTNYNPSLKSRVTISVDTSKNQFSLKLSSVTAADTAVYYCARFFDVWGQGTLVTVSS
VL: DIVLTQPPSVSGAPGQRVTISCSGSSSNIGSNTVRWYQQLPGTAPKLLIYSNNKRPSGVPDRFSGSKSGTSASLAITGLQSEDEADYYCWTGMSYHFVFGGGTKLTVLG
notes: Fab, H-CDR2 derivative of MOR03069
For B10, the binding result in assay [9] is “no binding”. In addition, in assay [10], the binding result is on record as “no binding”. In assay [11], the Kd was determined as 0.7 nM, the koff came out at 0.0016 s⁻¹ and the kon worked out at 3.5e+06 M⁻¹ s⁻¹.

B11: MOR02618 (Fab, V domains shown)
VH: QVQLVESGGGLVQPGGSLRLSCAASGFTFNNYGMTWVRQAPGKGLEWVSSIYGYGSNTYYADSVKGRFTISRDNSKNTLYLQMNSLRAEDTAVYYCARNYWVFAYWGQGTLVTVSS
VL: DIELTQPPSVSVAPGQTARISCSGDNIPGKSVHWYQQKPGQAPVLVIYGKMNRPSGIPERFSGSNSGNTATLTISGTQAEDEADYYCQSYDNFNDSVVFGGGTKLTVLG
notes: HuCAL GOLD Fab, VH3/L3
In the case of B11, in assay [4], the Kd amounted to 477 nM, the koff came to 0.2 s⁻¹ and the on-rate (kon) worked out at 430000 M⁻¹ s⁻¹. In assay [5], the binding result is on record as “no binding”. The binding result in assay [6] is “no binding”.
